Drawing on paper PMC4634129, this text covers stoichiometry N for two substances.

For experiment [1], the target named is RsPIPS-FL (chimeric construct: Af2299 extramembrane domain fused to the complete RsPIPS sequence abs (Archaeoglobus fulgidus | Renibacterium salmoninarum)). The experiment is described as follows: crystal structure; RsPIPS-FL with CDP-DAG, lipidic cubic phase (2% CDP-dioleoylglycerol/98% monoolein), 22 °C, 30% PEG 300, 0.1 M MES pH 6.0, 0.1 M NaCl, 0.1 M MgCl2; space group P 21, two dimers in the asymmetric unit; 3.6 Å.

Experiment [2] addresses RsPIPS-Δ6N (chimeric construct: Af2299 extramembrane domain fused to the N-terminus of PIP synthase (Archaeoglobus fulgidus | Renibacterium salmoninarum)). Nature of the experiment: crystal structure; RsPIPS-Δ6N, apo, lipidic cubic phase (monoolein), 22 °C, 20% PEG 400, 0.1 M MES pH 6.7, 0.2 M lithium sulfate; space group P 21 21 2, one protomer in the asymmetric unit; 2.5 Å.

For orientation: stoichiometry N means the number of molecules, sites or subunits per partner or assembly.

As to “RsPIPS-FL (chimeric construct: Af2299 extramembrane domain fused to the complete RsPIPS sequence abs (enzyme)”, the stoichiometry N in experiment [1] turned out to be 2.

Substance “RsPIPS-Δ6N (chimeric construct: Af2299 extramembrane domain fused to the N-terminus of PIP synthase (enzyme)” had a stoichiometry N in experiment [2] of 2.
